What all share (settings): tags: none; hairpin, 9 bp stem, 4 nt loop
The target of series [1] is T1, ATHP3 (AT-hook peptide 3) (mammalian (species ), UniProt P52926 74-83).
T1 chain: KRPRGRPRKW
Kind of series: ITC; two-site model, site 2, n2 = 1.1; ITC, UV melting and fluorescence in 1xBPE (6 mM Na2HPO4, 2 mM NaH2PO4, 1 mM Na2EDTA, pH 7.0), ITC 10 uM DNA; native MS probably in ammonium acetate (concentration not given); temperature not stated.

The target in series [2] is T1, ATHP3 (AT-hook peptide 3). The series can be described thus: ITC; two-site model, site 1, n1 = 1.3; ITC, UV melting and fluorescence in 1xBPE (6 mM Na2HPO4, 2 mM NaH2PO4, 1 mM Na2EDTA, pH 7.0), ITC 10 uM DNA; native MS probably in ammonium acetate (concentration not given); temperature not stated.
Series [3] has as its target T2, ATHP1 (AT-hook peptide 1) (mammalian (species ), UniProt P52926 26-34).
T2 chain: KRGRGRPRK
The series is described as above.

Series [4] addresses T3, ATHP2 (AT-hook peptide 2) (mammalian (species ), UniProt P52926 45-53).
T3 chain: PKRPRGRPK
The series can be described thus: native IMS-MS; Hoechst 33258 in minor groove, 1:1:1 complex; ITC, UV melting and fluorescence in 1xBPE (6 mM Na2HPO4, 2 mM NaH2PO4, 1 mM Na2EDTA, pH 7.0), ITC 10 uM DNA; native MS probably in ammonium acetate (concentration not given); temperature not stated.

Series [5] concerns the target T2, ATHP1 (AT-hook peptide 1). Kind of series: ITC; two-site model, site 2, n2 = 1.4; ITC, UV melting and fluorescence in 1xBPE (6 mM Na2HPO4, 2 mM NaH2PO4, 1 mM Na2EDTA, pH 7.0), ITC 10 uM DNA; native MS probably in ammonium acetate (concentration not given); temperature not stated.

In the case of GGATATTGCCCCCGCAATATCC (structured_DNA) [FL876], the Ka worked out at 1.1e+06 M⁻¹ in series [1], 1.1e+07 M⁻¹ in series [2], 1.9e+08 M⁻¹ in series [3] and 4e+06 M⁻¹ in series [5]. Also, the binding result in series [4] is listed as “binds”.
